The record followed here is the array DNA melting data of Ke et al..

This data set can be described thus: melting temperature; melt of duplexes. The following applies: sodium 0.0675 M; strand 1 µM.
In the case of “CGACGTGCCGTATGTGCTG+CAGCACATGAGGCACGTCG (((((((((..((((((((+))))))))..)))))))))”, the Tm was 58.7 °C. With “CGACGTGCCTAATGTGCTG+CAGCACATTTAGCACGTCG ((((((((..(((((((((+)))))))))..))))))))”, the Tm is 51.5 °C.

Turning to “CGACGTGCGCAATGTGCTG+CAGCACATCGCGCACGTCG ((((((((((.((((((((+)))))))).))))))))))”, the Tm turned out to be 60.3 °C.

On to “CGACGTGCTCAATGTGCTG+CAGCACATCTGGCACGTCG ((((((((...((((((((+))))))))...))))))))”, for which the midpoint of thermal melting (Tm) is 50.3 °C. With “CGACGTGCCAAATGTGCTG+CAGCACATGCGGCACGTCG (((((((((..((((((((+))))))))..)))))))))”, the Tm was found to be 57.1 °C. As for “CGACGTGCGATATGTGCTG+CAGCACATCGAGCACGTCG ((((((((...((((((((+))))))))...))))))))”, the figure is 53.6 °C. As for “CGACGTGCGCGATGTGCTG+CAGCACATTCTGCACGTCG ((((((((...((((((((+))))))))...))))))))”, the figure is 50.4 °C. As for “CGACGTGCAGAATGTGCTG+CAGCACATCAGGCACGTCG ((((((((...((((((((+))))))))...))))))))”, the figure is 51.1 °C; as for “CGACGTGCCTTATGTGCTG+CAGCACATAAGGCACGTCG (((((((((((((((((((+)))))))))))))))))))”, 62.9 °C.

Turning to “CGACGTGCCTCATGTGCTG+CAGCACATCAAGCACGTCG ((((((((.(.((((((((+)))))))).).))))))))”, the melting temperature (Tm) was 47.9 °C. As for “CGACGTGCAATATGTGCTG+CAGCACATAAGGCACGTCG ((((((((..(((((((((+)))))))))..))))))))”, the figure is 51.9 °C; as for “CGACGTGCAACATGTGCTG+CAGCACATGCTGCACGTCG (((((((((.(((((((((+))))))))).)))))))))”, 56.9 °C.

Consider “CGACGTGCGTGATGTGCTG+CAGCACATCTTGCACGTCG ((((((((..(((((((((+)))))))))..))))))))”, for which the Tm stood at 55.6 °C.

“CGACGTGCTGTATGTGCTG+CAGCACATACTGCACGTCG ((((((((.((((((((((+)))))))))).))))))))”: the midpoint of thermal melting (Tm) was 57.8 °C. As for “CGACGTGCCCCATGTGCTG+CAGCACATGCTGCACGTCG ((((((((..(((((((((+)))))))))..))))))))”, the figure is 49.7 °C. As for “CGACGTGCTAAATGTGCTG+CAGCACATTACGCACGTCG ((((((((..(((((((((+)))))))))..))))))))”, the figure is 51.4 °C; as for “CGACGTGCGCAATGTGCTG+CAGCACATACAGCACGTCG ((((((((...((((((((+))))))))...))))))))”, 51.4 °C.

For “CGACGTGCTAAATGTGCTG+CAGCACATTAAGCACGTCG (((((((((.(((((((((+))))))))).)))))))))”, the Tm was determined as 55.8 °C. As for “CGACGTGCCGCATGTGCTG+CAGCACATGTTGCACGTCG ((((((((..(((((((((+)))))))))..))))))))”, the figure is 54.5 °C; as for “CGACGTGCGAAATGTGCTG+CAGCACATCCCGCACGTCG (((((((((..((((((((+))))))))..)))))))))”, 52.9 °C. As for “CGACGTGCGATATGTGCTG+CAGCACATCTTGCACGTCG ((((((((.(.((((((((+)))))))).).))))))))”, the figure is 51.2 °C; as for “CGACGTGCCGTATGTGCTG+CAGCACATCAGGCACGTCG (((((((((..((((((((+))))))))..)))))))))”, 57.1 °C. Turning to “CGACGTGCACTATGTGCTG+CAGCACATACAGCACGTCG ((((((((..(((((((((+)))))))))..))))))))”, the Tm worked out at 45.4 °C. As for “CGACGTGCAAAATGTGCTG+CAGCACATGACGCACGTCG ((((((((...((((((((+))))))))...))))))))”, the Tm is 51.4 °C.

In the case of “CGACGTGCTTCATGTGCTG+CAGCACATGTAGCACGTCG (((((((((.(((((((((+))))))))).)))))))))”, the Tm is 57 °C. As for “CGACGTGCCCAATGTGCTG+CAGCACATGCGGCACGTCG (((((((((..((((((((+))))))))..)))))))))”, the figure is 54.3 °C. As for “CGACGTGCCTAATGTGCTG+CAGCACATGCTGCACGTCG ((((((((...((((((((+))))))))...))))))))”, the figure is 46.9 °C; as for “CGACGTGCTTGATGTGCTG+CAGCACATGGCGCACGTCG ((((((((...((((((((+))))))))...))))))))”, 47.2 °C; as for “CGACGTGCGTTATGTGCTG+CAGCACATAGCGCACGTCG (((((((((.(((((((((+))))))))).)))))))))”, 58.3 °C.

As for “CGACGTGCGCGATGTGCTG+CAGCACATGTAGCACGTCG ((((((((...((((((((+))))))))...))))))))”, the Tm came out at 52.6 °C. For “CGACGTGCCGCATGTGCTG+CAGCACATGAGGCACGTCG (((((((((.(((((((((+))))))))).)))))))))”, the Tm was found to be 62.6 °C. As for “CGACGTGCTTTATGTGCTG+CAGCACATACCGCACGTCG ((((((((..(((((((((+)))))))))..))))))))”, the figure is 48.3 °C; as for “CGACGTGCAGCATGTGCTG+CAGCACATACCGCACGTCG ((((((((.(.((((((((+)))))))).).))))))))”, 47.3 °C; as for “CGACGTGCATTATGTGCTG+CAGCACATAGAGCACGTCG ((((((((..(((((((((+)))))))))..))))))))”, 51.2 °C. As for “CGACGTGCGCGATGTGCTG+CAGCACATCTAGCACGTCG ((((((((..(((((((((+)))))))))..))))))))”, the figure is 55.5 °C.

For the substance “CGACGTGCTAAATGTGCTG+CAGCACATATGGCACGTCG ((((((((.(.((((((((+)))))))).).))))))))”, the Tm is 52 °C.

For “CGACGTGCTGAATGTGCTG+CAGCACATCATGCACGTCG ((((((((...((((((((+))))))))...))))))))”, the Tm was found to be 53.1 °C. For “CGACGTGCTCCATGTGCTG+CAGCACATGTAGCACGTCG (((((((((.(((((((((+))))))))).)))))))))”, the Tm came to 56.3 °C.

With “CGACGTGCATCATGTGCTG+CAGCACATACGGCACGTCG ((((((((...((((((((+))))))))...))))))))”, the Tm stood at 46.3 °C. As for “CGACGTGCCAGATGTGCTG+CAGCACATTATGCACGTCG ((((((((...((((((((+))))))))...))))))))”, the figure is 50.5 °C; as for “CGACGTGCCGCATGTGCTG+CAGCACATACCGCACGTCG ((((((((.(.((((((((+)))))))).).))))))))”, 48.9 °C.

For “CGACGTGCCAAATGTGCTG+CAGCACATCAAGCACGTCG ((((((((...((((((((+))))))))...))))))))”, the Tm was found to be 49.3 °C.

For “CGACGTGCCACATGTGCTG+CAGCACATGACGCACGTCG ((((((((..(((((((((+)))))))))..))))))))”, the Tm was determined as 49.5 °C. As for “CGACGTGCGACATGTGCTG+CAGCACATAATGCACGTCG ((((((((...((((((((+))))))))...))))))))”, the figure is 50.8 °C; as for “CGACGTGCGGAATGTGCTG+CAGCACATACTGCACGTCG ((((((((.(.((((((((+)))))))).).))))))))”, 54.3 °C. As for “CGACGTGCACTATGTGCTG+CAGCACATCACGCACGTCG ((((((((...((((((((+))))))))...))))))))”, the figure is 43.3 °C; as for “CGACGTGCCCTATGTGCTG+CAGCACATGACGCACGTCG ((((((((...((((((((+))))))))...))))))))”, 44 °C; as for “CGACGTGCGTTATGTGCTG+CAGCACATGTGGCACGTCG ((((((((...((((((((+))))))))...))))))))”, 49.6 °C. As for “CGACGTGCAGGATGTGCTG+CAGCACATCTAGCACGTCG ((((((((..(((((((((+)))))))))..))))))))”, the figure is 56 °C; as for “CGACGTGCGTTATGTGCTG+CAGCACATCAGGCACGTCG ((((((((.(.((((((((+)))))))).).))))))))”, 49.9 °C; as for “CGACGTGCGAAATGTGCTG+CAGCACATTACGCACGTCG (((((((((.(((((((((+))))))))).)))))))))”, 58.6 °C. On to “CGACGTGCACTATGTGCTG+CAGCACATACTGCACGTCG (((((((((.(((((((((+))))))))).)))))))))”, for which the Tm came out at 48.8 °C.

Regarding “CGACGTGCCACATGTGCTG+CAGCACATACAGCACGTCG ((((((((...((((((((+))))))))...))))))))”, the Tm was 48.6 °C. As for “CGACGTGCACAATGTGCTG+CAGCACATCTCGCACGTCG ((((((((...((((((((+))))))))...))))))))”, the figure is 45.1 °C; as for “CGACGTGCCTCATGTGCTG+CAGCACATCGAGCACGTCG ((((((((...((((((((+))))))))...))))))))”, 50 °C; as for “CGACGTGCTCGATGTGCTG+CAGCACATTACGCACGTCG ((((((((...((((((((+))))))))...))))))))”, 48.6 °C. Regarding “CGACGTGCTACATGTGCTG+CAGCACATTTTGCACGTCG ((((((((.(.((((((((+)))))))).).))))))))”, the Tm came out at 50.4 °C.

Take “CGACGTGCGGAATGTGCTG+CAGCACATCGAGCACGTCG ((((((((...((((((((+))))))))...))))))))”: the melting temperature (Tm) turned out to be 54.6 °C.

“CGACGTGCCTTATGTGCTG+CAGCACATATGGCACGTCG (((((((((.(((((((((+))))))))).)))))))))”: the midpoint of thermal melting (Tm) is 57.9 °C. As for “CGACGTGCCTTATGTGCTG+CAGCACATCGGGCACGTCG (((((((((..((((((((+))))))))..)))))))))”, the figure is 53.1 °C; as for “CGACGTGCTGCATGTGCTG+CAGCACATAATGCACGTCG ((((((((...((((((((+))))))))...))))))))”, 50.7 °C. As for “CGACGTGCCCGATGTGCTG+CAGCACATCACGCACGTCG ((((((((..(((((((((+)))))))))..))))))))”, the figure is 52.2 °C; as for “CGACGTGCCGAATGTGCTG+CAGCACATGGAGCACGTCG ((((((((...((((((((+))))))))...))))))))”, 53.1 °C; as for “CGACGTGCCTCATGTGCTG+CAGCACATTTTGCACGTCG ((((((((...((((((((+))))))))...))))))))”, 46.6 °C. As for “CGACGTGCGAGATGTGCTG+CAGCACATCTCGCACGTCG (((((((((((((((((((+)))))))))))))))))))”, the figure is 66.5 °C. As for “CGACGTGCCAAATGTGCTG+CAGCACATTATGCACGTCG ((((((((..(((((((((+)))))))))..))))))))”, the Tm was 51.2 °C.
